In publication PMC7891725, “Shared and distinct roles of Esc2 and Mms21 in suppressing genome rearrangements and regulating intracellular sumoylation” (PLoS ONE, 2021):

Target: T1, N-terminal Protein-A tagged Esc2 (WT) (S. cerevisiae, UniProt Q06340 1-456)
T1 construct: Esc2, S. cerevisiae, protein with two SUMO-like domains (SLD1, SLD2); details of plasmid construction are available upon request; also called WT Esc2; ScEsc2; source: bacteria (BL21 cells), purified with IgG sepharose resin; not shown: Protein A, N-terminal, kept
T1 sequence (looked up): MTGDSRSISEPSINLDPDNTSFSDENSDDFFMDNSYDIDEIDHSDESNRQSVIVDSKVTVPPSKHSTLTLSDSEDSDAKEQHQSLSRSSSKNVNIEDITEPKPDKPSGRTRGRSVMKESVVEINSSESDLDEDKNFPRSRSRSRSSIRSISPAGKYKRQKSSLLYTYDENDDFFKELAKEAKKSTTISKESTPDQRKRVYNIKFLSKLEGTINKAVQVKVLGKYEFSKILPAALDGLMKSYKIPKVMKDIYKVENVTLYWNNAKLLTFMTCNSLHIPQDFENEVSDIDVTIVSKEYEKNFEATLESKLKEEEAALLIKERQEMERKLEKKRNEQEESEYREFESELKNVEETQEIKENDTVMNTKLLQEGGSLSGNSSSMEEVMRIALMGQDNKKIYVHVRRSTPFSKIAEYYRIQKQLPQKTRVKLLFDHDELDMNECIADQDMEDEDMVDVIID
Assay: pull-down; 40 ug Protein-A-Esc2 (WT or D430R) bound to 20 uL IgG resin, incubated with 100 ug purified Ubc9 in 200 uL for 2 hours on ice; washed 5 times with PBS with 0.2% NP-40; bound Ubc9 eluted and seen by Coomassie staining
Settings: both partners purified

B1: C-terminal 6xHIS tagged Ubc9 (enzyme, S. cerevisiae, UniProt P50623 1-157, looked up)
chain: MSSLCLQRLQEERKKWRKDHPFGFYAKPVKKADGSMDLQKWEAGIPGKEGTNWAGGVYPITVEYPNEYPSKPPKVKFPAGFYHPNVYPSGTICLSILNEDQDWRPAITLKQIVLGVQDLLDSPNPNSPAQEPAWRSFSRNKAEYDKKVLLQAKQYSK
notes: Ubc9, SUMO E2 conjugating enzyme, S. cerevisiae; also called Ubc9 SUMO conjugating enzyme; E2
B1: binds.
